# Source: patent US20200407424A1 (FRAUNHOFER GESELLSCHAFT ZUR F RDERUNG DER ANGEWANDTEN …, published 2020)
# Square brackets hold non-standard residues; d marks the D form. Ends that are not written are not given here. Cit = NC(=O)NCCC[C@H](N)C(=O)O
# Target: T1, recombinant MHC class II protein of the HLA DRB1 0401 genotype (human)
# T1 construct: construct not described; also called HLA-DR0401
# Assay: in vitro binding assay
row,Binder,binding result
1,VDQLTNDKARVEVER [vimentin peptide ref no 33],binds
2,MSTRSVSSSSYRRMF [vimentin peptide ref no 1],binds
3,GVXLLQDSVDFSLAD (citrulline (Xaa) at 3) [citrullinated vimentin peptide ref no 108],binds
4,NDKARVEVERDNLAE [vimentin peptide ref no 34],binds
5,NTLQSFRQDVDNASL [vimentin peptide ref no 41],binds
6,SS[Cit]SYVTTST[Cit]TYSL [citrullinated vimentin peptide ref no 98],binds
7,FKNT[Cit]TNEKVELQEL [citrullinated vimentin peptide ref no 111],binds
8,STEYRRQVQSLTCEV [vimentin peptide ref no 64],binds
9,RKLLEGEESRISLPL [vimentin peptide ref no 81],binds
10,YAT[Cit]SSAV[Cit]L[Cit]SSVP [citrullinated vimentin peptide ref no 105],binds
11,THSK[Cit]TLLIKTVET[Cit] [citrullinated vimentin peptide ref no 166],no binding
12,YRRMFGGPGTASRPS [vimentin peptide ref no 3],binds
13,DNASLA[Cit]LDLE[Cit]KVE [citrullinated vimentin peptide ref no 133],binds
14,SAV[Cit]L[Cit]SSVPGV[Cit]LL [citrullinated vimentin peptide ref no 106],binds
15,SPGGVYAT[Cit]SSAV[Cit]L [citrullinated vimentin peptide ref no 104],binds

# Target: T2, recombinant MHC class II protein of the HLA DRB1 0101 genotype (human)
# T2 construct: construct not described
# Assay: in vitro binding assay
row,Binder,binding result
1,VDQLTNDKARVEVER [vimentin peptide ref no 33],no binding
2,MSTRSVSSSSYRRMF [vimentin peptide ref no 1],binds
3,REYQDLLNVKMALDI [vimentin peptide ref no 77],binds
4,GVXLLQDSVDFSLAD (citrulline (Xaa) at 3) [citrullinated vimentin peptide ref no 108],no binding
5,NDKARVEVERDNLAE [vimentin peptide ref no 34],no binding
6,FKNT[Cit]TNEKVELQEL [citrullinated vimentin peptide ref no 111],binds
7,STEYRRQVQSLTCEV [vimentin peptide ref no 64],binds
8,RKLLEGEESRISLPL [vimentin peptide ref no 81],no binding
9,YAT[Cit]SSAV[Cit]L[Cit]SSVP [citrullinated vimentin peptide ref no 105],binds
10,THSK[Cit]TLLIKTVET[Cit] [citrullinated vimentin peptide ref no 166],no binding
11,YRRMFGGPGTASRPS [vimentin peptide ref no 3],binds
12,DNASLA[Cit]LDLE[Cit]KVE [citrullinated vimentin peptide ref no 133],no binding
13,LLAELEQLKGQGKS[Cit] [citrullinated vimentin peptide ref no 117],binds
14,SAV[Cit]L[Cit]SSVPGV[Cit]LL [citrullinated vimentin peptide ref no 106],binds
15,SPGGVYAT[Cit]SSAV[Cit]L [citrullinated vimentin peptide ref no 104],binds

# Target: T3, recombinant MHC class II protein of the HLA DRB1 0404 genotype (human)
# T3 construct: construct not described
# Assay: in vitro binding assay
row,Binder,binding result
1,VDQLTNDKARVEVER [vimentin peptide ref no 33],binds
2,MSTRSVSSSSYRRMF [vimentin peptide ref no 1],binds
3,GVXLLQDSVDFSLAD (citrulline (Xaa) at 3) [citrullinated vimentin peptide ref no 108],no binding
4,NTLQSFRQDVDNASL [vimentin peptide ref no 41],binds
5,FKNT[Cit]TNEKVELQEL [citrullinated vimentin peptide ref no 111],no binding
6,RKLLEGEESRISLPL [vimentin peptide ref no 81],no binding
7,YAT[Cit]SSAV[Cit]L[Cit]SSVP [citrullinated vimentin peptide ref no 105],no binding
8,THSK[Cit]TLLIKTVET[Cit] [citrullinated vimentin peptide ref no 166],binds
9,YRRMFGGPGTASRPS [vimentin peptide ref no 3],binds
10,DNASLA[Cit]LDLE[Cit]KVE [citrullinated vimentin peptide ref no 133],no binding
11,LLAELEQLKGQGKS[Cit] [citrullinated vimentin peptide ref no 117],no binding
12,SAV[Cit]L[Cit]SSVPGV[Cit]LL [citrullinated vimentin peptide ref no 106],binds
13,SPGGVYAT[Cit]SSAV[Cit]L [citrullinated vimentin peptide ref no 104],binds

# Target: T4, recombinant MHC class II protein of the HLA DRB1 0405 genotype (human)
# T4 construct: construct not described
# Assay: in vitro binding assay
row,Binder,binding result
1,VDQLTNDKARVEVER [vimentin peptide ref no 33],no binding
2,MSTRSVSSSSYRRMF [vimentin peptide ref no 1],no binding
3,REYQDLLNVKMALDI [vimentin peptide ref no 77],binds
4,GVXLLQDSVDFSLAD (citrulline (Xaa) at 3) [citrullinated vimentin peptide ref no 108],no binding
5,NDKARVEVERDNLAE [vimentin peptide ref no 34],no binding
6,NTLQSFRQDVDNASL [vimentin peptide ref no 41],binds
7,SS[Cit]SYVTTST[Cit]TYSL [citrullinated vimentin peptide ref no 98],binds
8,FKNT[Cit]TNEKVELQEL [citrullinated vimentin peptide ref no 111],no binding
9,STEYRRQVQSLTCEV [vimentin peptide ref no 64],binds
10,RKLLEGEESRISLPL [vimentin peptide ref no 81],no binding
11,YAT[Cit]SSAV[Cit]L[Cit]SSVP [citrullinated vimentin peptide ref no 105],no binding
12,THSK[Cit]TLLIKTVET[Cit] [citrullinated vimentin peptide ref no 166],no binding
13,YRRMFGGPGTASRPS [vimentin peptide ref no 3],binds
14,DNASLA[Cit]LDLE[Cit]KVE [citrullinated vimentin peptide ref no 133],no binding
15,LLAELEQLKGQGKS[Cit] [citrullinated vimentin peptide ref no 117],no binding
16,SAV[Cit]L[Cit]SSVPGV[Cit]LL [citrullinated vimentin peptide ref no 106],binds
17,SPGGVYAT[Cit]SSAV[Cit]L [citrullinated vimentin peptide ref no 104],no binding

# Target: T1, recombinant MHC class II protein of the …
# Assay: in vitro binding assay
# Remark: another data set of the same source
row,Binder,binding result
1,KAKFAG[Cit]NF[Cit]NPLAK [citrullinated a-enolase peptide ref no 324],binds

# Target: T1, recombinant MHC class II protein of the …
# Assay: in vitro binding assay
# Remark: another data set of the same source
row,Binder,binding result
1,AEVYHNLKNVIKEKY [a-enolase peptide ref no 38],binds
2,KTIAPALVSKKLNVT [a-enolase peptide ref no 15],no binding
3,MSILKIHAREIFDSR [a-enolase peptide ref no 1],no binding
4,VEHINKTIAPALVSK [a-enolase peptide ref no 14],no binding
5,KSFIKDYPVVSIEDP [a-enolase peptide ref no 57],binds
6,GVSKAVEHINKTIAP [a-enolase peptide ref no 13],no binding
7,RYMGKGVSKAVEHIN [a-enolase peptide ref no 12],no binding
8,SERLAKYNQLLRIEE [a-enolase peptide ref no 81],no binding
9,GAPCRSERLAKYNQL [a-enolase peptide ref no 80],no binding
10,KGVPLYRHIADLAGN [a-enolase peptide ref no 26],binds

# Target: T5, recombinant MHC class II protein of the HLA DRB1 0408 genotype (human)
# T5 construct: construct not described
# Assay: in vitro binding assay
row,Binder,binding result
1,AEVYHNLKNVIKEKY [a-enolase peptide ref no 38],binds
2,KTIAPALVSKKLNVT [a-enolase peptide ref no 15],binds
3,MSILKIHAREIFDSR [a-enolase peptide ref no 1],no binding
4,VEHINKTIAPALVSK [a-enolase peptide ref no 14],binds
5,KAKFAG[Cit]NF[Cit]NPLAK [citrullinated a-enolase peptide ref no 324],no binding
6,KSFIKDYPVVSIEDP [a-enolase peptide ref no 57],binds
7,GVSKAVEHINKTIAP [a-enolase peptide ref no 13],no binding
8,RYMGKGVSKAVEHIN [a-enolase peptide ref no 12],binds
9,SERLAKYNQLLRIEE [a-enolase peptide ref no 81],no binding
10,GAPCRSERLAKYNQL [a-enolase peptide ref no 80],binds
11,KGVPLYRHIADLAGN [a-enolase peptide ref no 26],binds

# Target: T2, recombinant MHC class II protein of the …
# Assay: in vitro binding assay
# Remark: another data set of the same source
row,Binder,binding result
1,AEVYHNLKNVIKEKY [a-enolase peptide ref no 38],binds
2,KTIAPALVSKKLNVT [a-enolase peptide ref no 15],binds
3,MSILKIHAREIFDSR [a-enolase peptide ref no 1],binds
4,VEHINKTIAPALVSK [a-enolase peptide ref no 14],binds
5,KAKFAG[Cit]NF[Cit]NPLAK [citrullinated a-enolase peptide ref no 324],no binding
6,KSFIKDYPVVSIEDP [a-enolase peptide ref no 57],binds
7,GVSKAVEHINKTIAP [a-enolase peptide ref no 13],binds
8,RYMGKGVSKAVEHIN [a-enolase peptide ref no 12],binds
9,SERLAKYNQLLRIEE [a-enolase peptide ref no 81],binds
10,GAPCRSERLAKYNQL [a-enolase peptide ref no 80],binds
11,KGVPLYRHIADLAGN [a-enolase peptide ref no 26],binds

# Target: T3, recombinant MHC class II protein of the …
# Assay: in vitro binding assay
# Remark: another data set of the same source
row,Binder,binding result
1,AEVYHNLKNVIKEKY [a-enolase peptide ref no 38],no binding
2,KTIAPALVSKKLNVT [a-enolase peptide ref no 15],binds
3,MSILKIHAREIFDSR [a-enolase peptide ref no 1],binds
4,VEHINKTIAPALVSK [a-enolase peptide ref no 14],binds
5,KAKFAG[Cit]NF[Cit]NPLAK [citrullinated a-enolase peptide ref no 324],binds
6,KSFIKDYPVVSIEDP [a-enolase peptide ref no 57],binds
7,GVSKAVEHINKTIAP [a-enolase peptide ref no 13],binds
8,RYMGKGVSKAVEHIN [a-enolase peptide ref no 12],no binding
9,SERLAKYNQLLRIEE [a-enolase peptide ref no 81],binds
10,GAPCRSERLAKYNQL [a-enolase peptide ref no 80],no binding
11,KGVPLYRHIADLAGN [a-enolase peptide ref no 26],binds

# Target: T4, recombinant MHC class II protein of the …
# Assay: in vitro binding assay
# Remark: another data set of the same source
row,Binder,binding result
1,AEVYHNLKNVIKEKY [a-enolase peptide ref no 38],binds
2,KTIAPALVSKKLNVT [a-enolase peptide ref no 15],no binding
3,MSILKIHAREIFDSR [a-enolase peptide ref no 1],binds
4,VEHINKTIAPALVSK [a-enolase peptide ref no 14],no binding
5,KAKFAG[Cit]NF[Cit]NPLAK [citrullinated a-enolase peptide ref no 324],binds
6,KSFIKDYPVVSIEDP [a-enolase peptide ref no 57],binds
7,GVSKAVEHINKTIAP [a-enolase peptide ref no 13],no binding
8,RYMGKGVSKAVEHIN [a-enolase peptide ref no 12],binds
9,SERLAKYNQLLRIEE [a-enolase peptide ref no 81],no binding
10,GAPCRSERLAKYNQL [a-enolase peptide ref no 80],binds
11,KGVPLYRHIADLAGN [a-enolase peptide ref no 26],binds

# Target: T6, recombinant MHC class II protein of the HLA DRB1 1001 genotype (human)
# T6 construct: construct not described
# Assay: in vitro binding assay
row,Binder,binding result
1,AEVYHNLKNVIKEKY [a-enolase peptide ref no 38],no binding
2,KTIAPALVSKKLNVT [a-enolase peptide ref no 15],no binding
3,MSILKIHAREIFDSR [a-enolase peptide ref no 1],binds
4,VEHINKTIAPALVSK [a-enolase peptide ref no 14],no binding
5,KAKFAG[Cit]NF[Cit]NPLAK [citrullinated a-enolase peptide ref no 324],no binding
6,KSFIKDYPVVSIEDP [a-enolase peptide ref no 57],binds
7,GVSKAVEHINKTIAP [a-enolase peptide ref no 13],no binding
8,RYMGKGVSKAVEHIN [a-enolase peptide ref no 12],binds
9,SERLAKYNQLLRIEE [a-enolase peptide ref no 81],no binding
10,GAPCRSERLAKYNQL [a-enolase peptide ref no 80],no binding
11,KGVPLYRHIADLAGN [a-enolase peptide ref no 26],no binding
